We go through three variants from IntAct's records for PubMed 32066962.

First the molecules themselves.
B1: Repressor of RNA polymerase III transcription MAF1 (Saccharomyces cerevisiae), P41910 (parent)
chain: MKFIDELDIERVNQTLNFETNDCKIVGSCDIFTTKAVASDRKLYKTIDQHLDTILQENENYNATLQQQLAAPETNQSPCSSPFYSNRRDSNSFWEQKRRISFSEYNSNNNTNNSNGNSSNNNNYSGPNGSSPATFPKSAKLNDQNLKELVSNYDSGSMSSSSLDSSSKNDERIRRRSSSSISSFKSGKSSNNNYSSGTATNNVNKRRKSSINERPSNLSLGPFGPINEPSSRKIFAYLIAILNASYPDHDFSSVEPTDFVKTSLKTFISKFENTLYSLGRQPEEWVWEVINSHMTLSDCVLFQYSPSNSFLEDEPGYLWNLIGFLYNRKRKRVAYLYLICSRLNSSTGEVEDALAKKPQGKLIIDDGSNEYEGEYDFTYDENVIDDKSDQEESLQ
partner: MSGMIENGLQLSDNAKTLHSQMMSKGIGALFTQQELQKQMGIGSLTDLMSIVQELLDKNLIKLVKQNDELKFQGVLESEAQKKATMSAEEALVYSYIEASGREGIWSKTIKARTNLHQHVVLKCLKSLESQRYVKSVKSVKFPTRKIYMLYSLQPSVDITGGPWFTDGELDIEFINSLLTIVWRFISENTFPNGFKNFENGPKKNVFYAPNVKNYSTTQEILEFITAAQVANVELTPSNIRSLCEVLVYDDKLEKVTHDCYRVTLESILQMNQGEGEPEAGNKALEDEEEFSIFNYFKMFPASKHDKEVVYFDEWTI

In the assay the parent is B1. The settings on record: with rpc6_yeast RPC34, P32910.
For D248A;D250A, the “effect of a mutation on the interaction” value is given as “disrupting interaction strength”.
As to L318S;W319S, the “effect of a mutation on the interaction” value is recorded as “with no effect”.
The result for T33E;T34E reads “with no effect”.
